# Experimental data taken from paper PMC10700544.
# B1: wild type RNase J, BACTH fusions (pUT18 and pKNT25) [Helicobacter pylori] / wild type RNase J, BACTH fusions (pUT18 and pKNT25) [Helicobacter pylori] (parent)
# chain 1: MTDNNQNNENHENSSENSKADEMRAGAFERFTNRKKRFRENAQKNAEYSNHEASSHHKKEHRPNKKPNNHHKQKHAKTRNYAQEELDSNKVEGVTEILHVNERGTLGFHKELKKGVEANNKIQVEHLNPHYKMNLNSKASVKITPLGGLGEIGGNMMVIETPKSAIVIDAGMSFPKEGLFGVDILIPDFSYLHQIKDKIAGIIITHAHEDHIGATPYLFKELQFPLYGTPLSLGLIGSKFDEHGLKKYRSYFKIVEKRCPISVGEFIIEWIHITHSIIDSSALAIQTKAGTIIHTGDFKIDHTPVDNLPTDLYRLAHYGEKGVMLLLSDSTNSHKSGTTPSESTIAPAFDTLFKEAQGRVIMSTFSSNIHRVYQAIQYGIKYNRKIAVIGRSMEKNLDIARELGYIHLPYQSFIEANEVAKYPDNEILIVTTGSQGETMSALYRMATDEHRHISIKPNDLVIISAKAIPGNEASVSAVLNFLIKKEAKVAYQEFDNIHVSGHAAQEEQKLMLRLIKPKFFLPVHGEYNHVARHKQTAISCGVPEKNIYLMEDGDQVEVGPAFIKKVGTIKSGKSYVDNQSNLSIDTSIVQQREEVASAGVFVATIFVNKNKQALLESSQFSSLGLVGFKDEKPLIKEIQGGLEVLLKSSNAEILNNPKKLEDHTRNFIRKALFKKFRKYPAIICHAHSF
# chain 2: B1 chain 1
# Variants of: B1
# Test: BACTH (bacterial two hybrid), beta-galactosidase read-out
# Details: with wild type RNase J, in E. coli, RNJ WT on pUT18, mutant on pKNT25, n ≥ 6, parent: 430, read off a plot
row,Variant,response
1,chain 1 K632A,380 Miller units
2,chain 1 E652A,210 Miller units
3,chain 1 K609A,500 Miller units
4,chain 1 K647A,130 Miller units
5,chain 1 E661A,180 Miller units
6,chain 1 E593A,520 Miller units
7,chain 1 K658A,220 Miller units
8,chain 1 E616A,220 Miller units
9,chain 1 E594A,440 Miller units
